Experimental data published in publication PMC6405929, “Targeted drug delivery via caveolae-associated protein PV1 improves lung fibrosis” (Communications Biology, 2019).

Target: T1, Plasmalemma vesicle-associated protein (PV1), recombinant mouse (Mus musculus, UniProt Q91VC4)
T1 construct: plasmalemma vesicle-associated protein (PV1), mouse, recombinant; also called mouse PV1; recombinant mouse PV1
Assay: SPR; ProteOn XPR36; mouse PV1 amine-coupled to a GLC chip at ~200 RU; antibodies injected at 100 μl/min; 25 °C, PBS pH 7.2; 1:1 Langmuir model
Details: both partners purified

T1 sequence (Q91VC4 whole entry): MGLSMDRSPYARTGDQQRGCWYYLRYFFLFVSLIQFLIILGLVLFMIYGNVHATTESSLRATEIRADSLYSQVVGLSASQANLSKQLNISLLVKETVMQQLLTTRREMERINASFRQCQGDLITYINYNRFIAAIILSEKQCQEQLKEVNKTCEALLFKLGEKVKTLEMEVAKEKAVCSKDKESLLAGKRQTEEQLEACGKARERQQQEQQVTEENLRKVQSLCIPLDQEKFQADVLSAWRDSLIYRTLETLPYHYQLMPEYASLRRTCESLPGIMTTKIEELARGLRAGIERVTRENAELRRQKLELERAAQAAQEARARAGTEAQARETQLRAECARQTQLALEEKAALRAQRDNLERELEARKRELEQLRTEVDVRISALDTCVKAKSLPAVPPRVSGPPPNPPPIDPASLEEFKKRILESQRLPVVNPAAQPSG

B1: αPV1 IgG (de novo sequenced Meca32 variant as a human IgG1 chimeric antibody) (antibody, V domains shown)
VH: EVQLVESGGGLVQPGRSMKLSCAASGFTFSDYYMAWVRQAPKKGLEWVASISYEGNKTYYGDSVKGRFTISRDNAKSILYLQMNSLKSEDTATYYCARQSYSSYLFDYWGQGVM
VL: DIQMTQTPSSMSASLGERVTLSCGTSQGVNLFLNWYQQKPDGTIKPLIFFTSHLQSGVPSRFSGSGSGTAYSLTISSLEPEDFAVYYCQQYDSSPPTFGGGTKLYLK
notes: human IgG1 heavy-chain constant region (chimeric antibody); VL of the chosen Meca32 variant; light-chain constant region; Human IgG1 chimera of rat variable domains; also called anti-PV1 antibody; αPV1 mAb; source: HEK293F, transient, purified (protein A; SEC if necessary)
Work on B1 yielded a Kd of 0.5 nM.
